Five molecules from PMC5014550, “Mitochondrial Bol1 and Bol3 function as assembly factors for specific iron-sulfur proteins” (eLife, 2016) can be followed below.

T1: human NFU1 (residues 57-254) with N-terminal His-tag (human, UniProt Q9UMS0 57-254)
T1 chain: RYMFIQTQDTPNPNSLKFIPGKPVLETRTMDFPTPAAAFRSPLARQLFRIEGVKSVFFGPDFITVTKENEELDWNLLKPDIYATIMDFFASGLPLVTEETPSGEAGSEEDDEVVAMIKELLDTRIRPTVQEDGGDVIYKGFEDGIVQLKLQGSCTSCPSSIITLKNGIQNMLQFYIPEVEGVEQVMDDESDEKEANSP

T2: human NFU1 (residues 57-254) with N-terminal His-tag (human, UniProt Q9UMS0 57-254)
T2 construct: Used as apo form or chemically reconstituted holo form carrying a [4Fe-4S] cluster; the assay's format says which; also called apo-NFU1; holo-NFU1; source: E. coli BL21 (DE3), pET-Duet1, purified (HisTrap HP, Superdex 200 gel filtration)
T2 sequence (looked up): T1 chain

T3: human GLRX5, protein used for NMR (human, UniProt Q86SX6 32-157)
T3 construct: human mitochondrial monothiol glutaredoxin GLRX5; Used as apo form with 5 mM GSH, or chemically reconstituted with a [2Fe-2S] cluster; the assay's format says which; also called apo-GLRX5; holo-GLRX5; source: produced as previously reported (Banci et al., 2014)
T3 sequence (looked up): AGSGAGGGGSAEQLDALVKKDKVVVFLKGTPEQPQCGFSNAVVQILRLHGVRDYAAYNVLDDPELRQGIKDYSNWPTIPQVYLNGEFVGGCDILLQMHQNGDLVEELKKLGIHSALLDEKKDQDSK

B1: human BOLA1 (residues 30-137) with N-terminal His-tag (natural protein, UniProt Q9Y3E2 30-137, looked up)
chain: GPVEAAIRTKLEEALSPEVLELRNESGGHAVPPGSETHFRVAVVSSRFEGLSPLQRHRLVHAALAEELGGPVHALAIQARTPAQWRENSQLDTSPPCLGGNKKTLGTP
notes: Labelled with NT-647 dye in MST; source: E. coli BL21 (DE3), pET-Duet1, purified (HisTrap HP, Superdex 200 gel filtration)
B2: human GLRX5 (residues 32-157) with N-terminal His-tag (natural protein, UniProt Q86SX6 32-157, looked up)
chain: T3 sequence (looked up)
notes: Chemically reconstituted with a [2Fe-2S] cluster (holo form, >85% holo); holo-GLRX5 alone eluted as a homodimer; also called holo-GLRX5; source: E. coli BL21 (DE3), pET-Duet1, purified (HisTrap HP, Superdex 200 gel filtration)
B3: human BOLA3 (residues 25-107) with N-terminal His-tag (natural protein, UniProt Q53S33 25-107, looked up)
chain: MFATQTEGELRVTQILKEKFPRATAIKVTDISGGCGAMYEIKIESEEFKEKRTVQQHQMVNQALKEEIKEMHGLRIFTSVPKR
notes: as for B1
B4: human BOLA1 (residues 21-137), NMR construct (natural protein, UniProt Q9Y3E2 21-137, looked up)
chain: QGSAGSGAIGPVEAAIRTKLEEALSPEVLELRNESGGHAVPPGSETHFRVAVVSSRFEGLSPLQRHRLVHAALAEELGGPVHALAIQARTPAQWRENSQLDTSPPCLGGNKKTLGTP
notes: human BOLA1, residues 21-137, construct for NMR; 15N- or 13C,15N-labelled where observed by NMR; His-tag cleaved by tobacco etch virus protease; also called 15N-labeled BOLA1; source: E. coli BL21(DE3)GOLD, pETG20A vector, purified; not shown: His-tag, N-terminal, cleaved
B5: human BOLA3 (residues 27-107), NMR construct (natural protein, UniProt Q53S33 27-107, looked up)
chain: ATQTEGELRVTQILKEKFPRATAIKVTDISGGCGAMYEIKIESEEFKEKRTVQQHQMVNQALKEEIKEMHGLRIFTSVPKR
notes: human BOLA3, residues 27-107, construct for NMR; 15N- or 13C,15N-labelled where observed by NMR; His-tag cleaved by tobacco etch virus protease; also called 15N-labeled BOLA3; source: E. coli BL21(DE3)GOLD, pET15 vector, purified; not shown: His-tag, N-terminal, cleaved

Data set [1] addresses T1, human NFU1 (residues 57-254) with …. In words: MST; apo-NFU1, anaerobic.
Data set [2] concerns the target B2. In words: SEC; gel filtration in buffer R of holo-GLRX5 alone, co-reconstituted equimolar GLRX5-BOLA1 and holo-GLRX5-BOLA3, recorded at 420 nm and 280 nm; fractions analysed by Coomassie and immunostaining. Particulars: both partners purified. (SEC sorts molecules by how far they enter the pores of the column.)
For data set [3], the target named is T1, human NFU1 (residues 57-254) with …. As to the kind of experiment: MST; holo-NFU1, anaerobic.
Data set [4] has as its target T2, human NFU1 (residues 57-254) with …. In words: MST; 200 nM NT-647-labeled BOLA1 or BOLA3, titrated with unlabeled apo-NFU1 (200 µM to 6.1 nM); buffer T (50 mM KPi pH 7.4, 150 mM NaCl, 5% glycerol, 0.05 mg/ml BSA, 0.05% Tween20), 21°C, anaerobic. Particulars: both partners purified.
Data set [5] concerns the molecule itself. As to the kind of experiment: SEC; gel filtration in buffer R of holo-GLRX5 alone, co-reconstituted equimolar GLRX5-BOLA1 and holo-GLRX5-BOLA3, recorded at 420 nm and 280 nm; fractions analysed by Coomassie and immunostaining.
In data set [6] the target is T2, human NFU1 (residues 57-254) with …. As to the kind of experiment: MST; 200 nM NT-647-labeled BOLA1 or BOLA3, titrated with unlabeled chemically reconstituted holo-NFU1 carrying a [4Fe-4S] cluster (200 µM to 6.1 nM); buffer T, 21°C, anaerobic. Particulars: both partners purified.
For data set [7], the target named is T3, human GLRX5, protein used for NMR. As to the kind of experiment: NMR titration; 1H-15N HSQC; 15N-labeled BOLA1 or BOLA3 titrated with unlabeled apo-GLRX5 and vice versa; 15N R1 and R2 relaxation on the final mixtures; degassed buffer N (50 mM phosphate pH 7, 5 mM GSH, 5 mM DTT), 10% D2O, 298 K. Particulars: both partners purified.

Take B1: the Kd in data set [1] was 3.59 µM; in data set [3] it was 2.14 µM; in data set [4] it was about 3 µM. Further, the binding result in data set [2] is “binds”.
As for B2, in data set [5], the “stoichiometry N” value amounted to 2.
Consider B3, for which the Kd is 3.57 µM in data set [1], 0.8 µM in data set [6] and about 3 µM in data set [4].
Take B4: the “stoichiometry N” value in data set [7] was 1.
Turning to B5, the “stoichiometry N” value in data set [7] turned out to be 1.

In general, Kd refers to a measure of binding affinity in units of concentration. Low values mean a tighter complex, high ones a looser complex. The stoichiometry N is a count of units in the complex or per binding partner.
